Our source for the OD450, Kd and percent of cells in the gate values is patent publication US12723078.

Assay [1] deals with recombinant LILRB1 (human) (UniProt Q8NHL6). Put plainly: ELISA, control. (In general: In an ELISA, binding on a coated surface is turned into a signal by an enzyme label.)
Assay [2] shares this target. Put plainly: Octet RED96, LILRB1 at 100, 33.3, 11.1 and 3.7 nM. In general terms: BLI is a label-free optical method that tracks binding on a fibre tip over time.
Assay [3] concerns the target LILRA4 on reporter cells (UniProt P59901). Put plainly: flow cytometry on 2B4 cells expressing the LILR, PE. For orientation: A flow cytometer gives signals particle by particle.
For assay [4], the target named is LILRB4 on reporter cells (UniProt Q8NHJ6). The description is as above.
The target in assay [5] is LILRB3 on reporter cells (UniProt O75022). The assay is described as above.
Assay [6] addresses LILRA1 on reporter cells (UniProt O75019). Described as above.
For assay [7], the target named is LILRA6 on reporter cells (UniProt Q6PI73). Described as above.
LILRA6 on reporter cells, sequence (Q6PI73 24-481): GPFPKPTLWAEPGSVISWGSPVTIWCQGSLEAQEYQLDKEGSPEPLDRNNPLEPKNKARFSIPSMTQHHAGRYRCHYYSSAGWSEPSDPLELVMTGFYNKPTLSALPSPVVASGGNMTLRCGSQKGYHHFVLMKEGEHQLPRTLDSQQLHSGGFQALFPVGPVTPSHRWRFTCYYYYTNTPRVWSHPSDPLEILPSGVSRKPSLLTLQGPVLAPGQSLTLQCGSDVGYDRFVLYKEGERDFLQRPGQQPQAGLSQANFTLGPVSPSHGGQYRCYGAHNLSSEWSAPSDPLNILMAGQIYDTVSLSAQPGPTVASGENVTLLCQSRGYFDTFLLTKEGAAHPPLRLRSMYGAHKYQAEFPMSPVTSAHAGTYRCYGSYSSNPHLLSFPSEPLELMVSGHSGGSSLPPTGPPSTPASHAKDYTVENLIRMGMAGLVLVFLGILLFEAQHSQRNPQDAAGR
Assay [8] has as its target LILRB1 expressed on cell surface (human) (UniProt Q8NHL6). The description is as above.
In assay [9] the target is LILRA5 on reporter cells (UniProt A6NI73). Described as above.
LILRA5 on reporter cells, sequence (A6NI73 42-299): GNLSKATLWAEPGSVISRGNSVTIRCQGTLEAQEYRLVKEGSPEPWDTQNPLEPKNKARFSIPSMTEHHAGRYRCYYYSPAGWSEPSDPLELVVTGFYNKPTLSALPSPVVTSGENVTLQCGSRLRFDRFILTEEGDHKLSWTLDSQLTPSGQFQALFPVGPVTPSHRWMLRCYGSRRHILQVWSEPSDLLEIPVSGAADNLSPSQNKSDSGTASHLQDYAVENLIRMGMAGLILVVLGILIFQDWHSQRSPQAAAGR
The target in assay [10] is LILRA2 on reporter cells (UniProt Q8N149). Described as above.
LILRA2 on reporter cells, sequence (Q8N149 24-483): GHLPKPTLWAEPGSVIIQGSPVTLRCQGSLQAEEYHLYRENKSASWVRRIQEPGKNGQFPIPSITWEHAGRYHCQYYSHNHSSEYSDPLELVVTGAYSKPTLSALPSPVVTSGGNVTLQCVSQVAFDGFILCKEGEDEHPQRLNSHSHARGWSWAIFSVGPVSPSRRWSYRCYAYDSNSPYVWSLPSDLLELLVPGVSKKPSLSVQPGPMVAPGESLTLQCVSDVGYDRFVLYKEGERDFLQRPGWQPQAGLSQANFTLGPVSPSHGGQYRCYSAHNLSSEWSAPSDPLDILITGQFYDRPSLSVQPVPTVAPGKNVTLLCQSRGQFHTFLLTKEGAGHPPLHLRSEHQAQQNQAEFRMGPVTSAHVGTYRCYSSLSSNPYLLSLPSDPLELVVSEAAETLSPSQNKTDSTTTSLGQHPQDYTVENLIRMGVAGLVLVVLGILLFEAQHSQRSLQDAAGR
Assay [11] has as its target LILRB5 on reporter cells (UniProt O75023). The description is as above.
Assay [12] deals with LILRB2 on reporter cells (UniProt Q8N423). Described as above.
LILRB2 on reporter cells, sequence (Q8N423 22-597): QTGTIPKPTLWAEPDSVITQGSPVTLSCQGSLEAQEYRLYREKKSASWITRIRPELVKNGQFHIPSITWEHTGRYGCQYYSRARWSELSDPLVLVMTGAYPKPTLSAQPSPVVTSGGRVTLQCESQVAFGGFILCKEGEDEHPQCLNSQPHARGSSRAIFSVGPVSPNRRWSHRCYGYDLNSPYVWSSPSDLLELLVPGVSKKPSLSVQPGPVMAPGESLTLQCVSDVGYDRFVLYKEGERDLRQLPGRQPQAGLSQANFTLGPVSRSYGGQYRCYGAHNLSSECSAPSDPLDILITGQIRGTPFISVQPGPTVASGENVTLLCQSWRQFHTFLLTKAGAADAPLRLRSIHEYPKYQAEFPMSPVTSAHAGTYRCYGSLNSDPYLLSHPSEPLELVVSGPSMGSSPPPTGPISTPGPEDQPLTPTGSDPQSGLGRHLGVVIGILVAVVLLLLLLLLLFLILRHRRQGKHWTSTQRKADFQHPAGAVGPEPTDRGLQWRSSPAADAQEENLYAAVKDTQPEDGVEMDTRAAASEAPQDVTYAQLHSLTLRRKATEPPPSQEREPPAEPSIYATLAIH

LILRA4 on reporter cells, sequence (P59901 24-499): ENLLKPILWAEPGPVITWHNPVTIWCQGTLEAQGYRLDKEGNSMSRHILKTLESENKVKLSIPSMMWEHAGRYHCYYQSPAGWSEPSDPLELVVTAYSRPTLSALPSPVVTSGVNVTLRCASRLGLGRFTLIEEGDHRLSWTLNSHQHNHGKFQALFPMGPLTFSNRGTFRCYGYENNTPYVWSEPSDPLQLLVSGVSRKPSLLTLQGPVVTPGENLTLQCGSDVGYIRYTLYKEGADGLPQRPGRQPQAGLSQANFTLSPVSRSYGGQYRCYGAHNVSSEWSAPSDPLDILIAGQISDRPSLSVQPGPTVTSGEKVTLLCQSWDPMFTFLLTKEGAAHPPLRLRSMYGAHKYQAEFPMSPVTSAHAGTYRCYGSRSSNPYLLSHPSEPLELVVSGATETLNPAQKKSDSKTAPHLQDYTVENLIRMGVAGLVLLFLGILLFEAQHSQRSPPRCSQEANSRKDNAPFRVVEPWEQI
LILRA1 on reporter cells, sequence (O75019 17-489 limits assumed): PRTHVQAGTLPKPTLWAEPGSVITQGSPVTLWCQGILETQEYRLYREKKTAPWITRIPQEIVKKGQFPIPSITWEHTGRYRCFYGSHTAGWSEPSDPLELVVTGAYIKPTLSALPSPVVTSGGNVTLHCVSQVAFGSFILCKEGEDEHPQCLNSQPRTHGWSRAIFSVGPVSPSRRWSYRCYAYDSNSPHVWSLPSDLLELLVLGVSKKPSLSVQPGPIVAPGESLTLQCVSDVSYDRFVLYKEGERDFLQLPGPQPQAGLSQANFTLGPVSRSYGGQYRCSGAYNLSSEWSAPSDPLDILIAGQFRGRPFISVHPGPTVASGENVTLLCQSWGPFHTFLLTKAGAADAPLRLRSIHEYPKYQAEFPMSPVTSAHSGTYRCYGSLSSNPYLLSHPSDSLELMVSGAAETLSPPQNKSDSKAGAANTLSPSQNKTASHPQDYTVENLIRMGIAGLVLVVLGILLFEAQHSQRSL
LILRB1 expressed on cell surface (human), sequence (Q8NHL6 24-650 limits assumed): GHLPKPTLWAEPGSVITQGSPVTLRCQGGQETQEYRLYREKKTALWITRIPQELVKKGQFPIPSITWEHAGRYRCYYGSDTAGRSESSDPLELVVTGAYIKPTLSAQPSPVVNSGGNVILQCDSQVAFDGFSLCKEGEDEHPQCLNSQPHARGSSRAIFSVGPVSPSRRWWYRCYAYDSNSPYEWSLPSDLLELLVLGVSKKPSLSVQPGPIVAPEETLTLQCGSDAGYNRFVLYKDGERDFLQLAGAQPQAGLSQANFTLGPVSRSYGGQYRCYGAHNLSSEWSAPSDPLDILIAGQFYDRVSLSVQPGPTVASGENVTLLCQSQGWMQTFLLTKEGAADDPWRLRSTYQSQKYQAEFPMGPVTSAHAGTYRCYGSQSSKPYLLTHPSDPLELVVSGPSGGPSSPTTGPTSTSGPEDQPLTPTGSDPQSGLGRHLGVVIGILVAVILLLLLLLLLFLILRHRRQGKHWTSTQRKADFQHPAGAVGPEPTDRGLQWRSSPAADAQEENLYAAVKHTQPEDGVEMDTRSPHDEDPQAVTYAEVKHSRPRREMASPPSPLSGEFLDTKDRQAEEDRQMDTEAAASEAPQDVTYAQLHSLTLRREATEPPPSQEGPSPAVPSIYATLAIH
recombinant LILRB1 (human), sequence (Q8NHL6 24-461 limits assumed): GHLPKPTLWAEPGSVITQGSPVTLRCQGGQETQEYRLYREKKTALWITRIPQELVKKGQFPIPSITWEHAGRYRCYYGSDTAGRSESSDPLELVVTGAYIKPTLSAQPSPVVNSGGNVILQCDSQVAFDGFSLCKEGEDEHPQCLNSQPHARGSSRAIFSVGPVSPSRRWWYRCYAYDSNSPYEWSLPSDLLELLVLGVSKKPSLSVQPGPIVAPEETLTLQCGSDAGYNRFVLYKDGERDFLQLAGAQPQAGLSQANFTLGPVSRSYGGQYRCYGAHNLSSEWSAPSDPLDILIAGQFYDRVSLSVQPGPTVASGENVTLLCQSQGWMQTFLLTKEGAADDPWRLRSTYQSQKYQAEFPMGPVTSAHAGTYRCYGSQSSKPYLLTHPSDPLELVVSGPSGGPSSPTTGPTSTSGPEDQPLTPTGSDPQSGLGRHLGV
LILRB5 on reporter cells, sequence (O75023 24-590 limits assumed): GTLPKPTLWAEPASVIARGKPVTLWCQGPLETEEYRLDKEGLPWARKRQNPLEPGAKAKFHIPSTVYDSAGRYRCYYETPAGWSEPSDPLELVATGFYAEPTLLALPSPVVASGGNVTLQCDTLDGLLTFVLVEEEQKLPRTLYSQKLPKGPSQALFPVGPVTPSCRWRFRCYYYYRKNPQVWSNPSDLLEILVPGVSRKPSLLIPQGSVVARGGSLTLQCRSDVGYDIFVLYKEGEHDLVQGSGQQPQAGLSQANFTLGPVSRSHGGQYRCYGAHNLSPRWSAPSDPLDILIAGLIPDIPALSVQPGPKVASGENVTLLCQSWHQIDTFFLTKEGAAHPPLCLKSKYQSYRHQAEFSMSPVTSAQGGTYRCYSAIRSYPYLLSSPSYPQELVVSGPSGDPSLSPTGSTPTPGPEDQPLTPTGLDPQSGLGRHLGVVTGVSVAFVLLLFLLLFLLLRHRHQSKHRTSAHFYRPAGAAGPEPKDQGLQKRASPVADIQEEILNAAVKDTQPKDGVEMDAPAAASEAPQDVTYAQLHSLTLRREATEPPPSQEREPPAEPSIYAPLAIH

As to Ctrl, the OD450 in assay [1] is 0.1 OD450.
The term Kd denotes the concentration at which binding is half-saturated. For the substance “GHI/75 (commercial anti-LILRB1 monoclonal antibody)”, in assay [2], the Kd is 5.13 nM. The percent of cells in the gate in assay [3] is 0.16%; in assay [4] it was 0.524%; in assay [5] it was 0.867%; in assay [6] it was 1.22%; in assay [7], 0.273%; in assay [8], 98.8%. Besides, the percent of cells in the gate was found to be 0.219% in assay [9], 1.25% in assay [10], 0.558% in assay [11] and 1.58% in assay [12].
With “HP-F1 (commercial anti-LILRB1 monoclonal antibody)”, in assay [2], the Kd stood at 8.26 nM. The percent of cells in the gate is 0.301% in [3]; 0.0568% in assay [4]; 0.196% in assay [5]; 80.8% in assay [6]; 0.144% in assay [7]; 98.5% in assay [8]. Further, the percent of cells in the gate in assay [9] came out at 0.343%; in [10] it was 85.3%; in assay [11], 0.0127%; in assay [12] it was 1.52%.
As for R&D 292319 (antibody), the percent of cells in the gate in assay [3] amounted to 0.27%; in assay [4], 0.466%; in [5], 0.239%; in [6], 0.249%; in assay [7] it was 0.199%; in assay [8] it was 96.3%. Moreover, the percent of cells in the gate in assay [9] came to 0.282%; in [10], 0.334%; in assay [11], 0.359%; in [12], 0.65%.
